Results on 83 variants are retold here after the RNAGym collection of RNA variant scans (doi:10.1093/molbev/msab373).

First the molecules themselves.
B1: Azoarcus group I ribozyme (parent)
chain: GUGCCUUGCGCCGGGAAACCACGCAAGGGAUGGUGUCAAAUUCGGCGAAACCUAAGCGCCCGCCCGGGCGUAUGGCAACGCCGAGCCAAGCUUCGGCGCCUGCGCCGAUGAAGGUGUAGAGACUAGACGGCACCCACCUAAGGCAAACGCUAUGGUGAAGGCAUAGUCCAGGGAGUGGCGAAAGUCACACAAACCGG

Variants of B1 are the subject of this data set. Description: reverse-splicing fitness (ratio to wild type); higher = more active; in vitro selection; Mg2+ level not given. In outline: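 An in vitro group I ribozyme library with randomized positions was T7-transcribed and gel-purified. In triplicate, 10 pmol RNA in EPPS pH 7.5 was reacted with 50 pmoles of a 30-nt RNA substrate for 1 h at 37 °C across several added MgCl2 levels (1–48 mM), then stopped with EDTA. Products were reverse transcribed from a substrate-complementary primer, PCR-amplified and sequenced (HiSeq 4000). Fitness is a variant's read proportion after selection over that before, normalised to wild type.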
Take C82U A111U A120G A145U C150G C169G U176A: the reverse-splicing fitness is 0.00623.
The result for C82U A111U A120G A145U C150G C169G U176G reads 0.00385.
As to C82U A111U A120G C150U C169U U176A, the reverse-splicing fitness was 0.0214.
Turning to C82U A111U A120G C150U C169U U176G, the reverse-splicing fitness worked out at 0.00647.
The result for C82U A111U A120G C150U C169U U176C reads 0.0158.
The same measure for C82U A111U A120C C150U U176A: 0.011; for C82U A111U A120C C150U U176C: 0.0158.
As for C82U A111U A120C C150U U176G, the reverse-splicing fitness worked out at 0.00696.
The result for C82U A111U A120G A145C C150U C169A U176G reads 0.00482.
With C82U A111U A120G A145C C150U C169A U176C, the reverse-splicing fitness was found to be 0.00544.
The result for C82U A111U A120G A145C C150U C169A U176A reads 0.0102; that for C82U A111U A120G C150U C169A U176G, 0.005.
On to C82U A111U A120G C150U C169A U176A, for which the reverse-splicing fitness came out at 0.0156.
C82U A111U A120G C150U C169A U176C: the reverse-splicing fitness came to 0.0129.
As to C82U A111U A120C C150G C169A, the reverse-splicing fitness came out at 0.00864.
The same measure for C82U A111U A120C C150G C169U: 0.00868; for C82U A111U A120C C150G C169G: 0.00613; for C82U A111U A120G C169G U176A: 0.0203.
The same measure for C82U A111U A120G C169G U176C: 0.0225.
In the case of C82U A111U A120G C169G U176G, the reverse-splicing fitness amounted to 0.00437.
For C82U A111U A120G U176C, the reverse-splicing fitness was 0.0165.
The same measure for C82U A111U A120G U176A: 0.0123.
The same measure for C82U A111U A120G A145G U176C: 0.0197; for C82U A111U A120G A145G U176A: 0.0127.
With C82U A111U A120G A145G U176G, the reverse-splicing fitness amounted to 0.00453.
The same measure for C82U A111U A120G A145G C150A C169G U176C: 0.0253.
Consider C82U A111U A120G A145G C150A C169G U176G, for which the reverse-splicing fitness was 0.00481.
The result for C82U A111U A120G A145G C150A C169G U176A reads 0.0152; that for C82U A111U A120G A145U C150A C169A, 0.00884.
C82U A111U A120G A145U C150A C169G: the reverse-splicing fitness worked out at 0.00728.
For the variant C82U A111U A120G A145U C150A C169U, the reverse-splicing fitness is 0.0062.
As to C82U A111U A120G A145C C150A C169G U176A, the reverse-splicing fitness was determined as 0.0242.
As for C82U A111U A120G A145C C150A C169G U176C, the reverse-splicing fitness turned out to be 0.0136.
For C82U A111U A120G A145C C150A C169G U176G, the reverse-splicing fitness worked out at 0.00478.
Turning to C82U A111U A120C U176G, the reverse-splicing fitness is 0.00482.
Regarding C82U A111U A120C U176C, the reverse-splicing fitness worked out at 0.0191.
Regarding C82U A111U A120C U176A, the reverse-splicing fitness is 0.0144.
The result for C82U A111U A120G A145G reads 0.0162; that for C82U A111U A120G A145U, 0.0147.
Take C82U A111U A120G A145C: the reverse-splicing fitness was determined as 0.0134.
C82U A111U A120C A145U U176A: the reverse-splicing fitness was found to be 0.0127.
The same measure for C82U A111U A120C A145U U176G: 0.00445; for C82U A111U A120C A145U U176C: 0.0165; for C82U A111U A120G A145C C150G C169G: 0.0068.
Regarding C82U A111U A120G A145C C150G C169U, the reverse-splicing fitness was found to be 0.00686.
The same measure for C82U A111U A120G A145C C150G C169A: 0.00779.
The result for C82U A111U A120G A145G C150U C169U U176C reads 0.014; that for C82U A111U A120G A145G C150U C169U U176A, 0.0194.
Regarding C82U A111U A120G A145G C150U C169U U176G, the reverse-splicing fitness was determined as 0.00481.
The result for C82U A111U A120G A145G C150A C169U U176C reads 0.0157; that for C82U A111U A120G A145G C150A C169U U176G, 0.00536; that for C82U A111U A120G A145G C150A C169U U176A, 0.0205.
The same measure for C82U A111U A120G A145C C150A C169U U176A: 0.0189; for C82U A111U A120G A145C C150A C169U U176G: 0.00474; for C82U A111U A120G A145C C150A C169U U176C: 0.00977.
Regarding C82U A111U A120G A145G C169U U176A, the reverse-splicing fitness amounted to 0.0196.
The result for C82U A111U A120G A145G C169U U176G reads 0.00458.
The result for C82U A111U A120G A145G C169U U176C reads 0.0159; that for C82U A111U A120C C150A U176A, 0.0126; that for C82U A111U A120C C150A U176C, 0.0189.
On to C82U A111U A120C C150A U176G, for which the reverse-splicing fitness worked out at 0.0056.
Consider C82U A111U A120G A145C C150U, for which the reverse-splicing fitness is 0.0086.
The result for C82U A111U A120G A145C C150G reads 0.00668; that for C82U A111U A120G A145C C150A, 0.0064; that for C82U A111U A120G A145U C169A U176C, 0.0101.
The result for C82U A111U A120G A145U C169A U176G reads 0.00391; that for C82U A111U A120G A145U C169A U176A, 0.0113; that for C82U A111U A120G C169A, 0.00883.
Regarding C82U A111U A120G C169G, the reverse-splicing fitness is 0.01.
Turning to C82U A111U A120G C169U, the reverse-splicing fitness was 0.0086.
The result for C82U A111U A120G A145C C150A U176C reads 0.00836; that for C82U A111U A120G A145C C150A U176A, 0.00746; that for C82U A111U A120G A145C C150A U176G, 0.00379.
On to C82U A111U A120C C150G C169G U176A, for which the reverse-splicing fitness was 0.00688.
With C82U A111U A120C C150G C169G U176C, the reverse-splicing fitness was 0.00458.
The result for C82U A111U A120C C150G C169G U176G reads 0.00402; that for C82U A111U A120G C150G C169A U176C, 0.00855.
With C82U A111U A120G C150G C169A U176G, the reverse-splicing fitness is 0.00664.
As for C82U A111U A120G C150G C169A U176A, the reverse-splicing fitness came to 0.00906.
Regarding C82U A111U A120G A145G C169A U176C, the reverse-splicing fitness amounted to 0.031.
Regarding C82U A111U A120G A145G C169A U176G, the reverse-splicing fitness came to 0.00433.
The same measure for C82U A111U A120G A145G C169A U176A: 0.0205.
For the variant C82U A111U A120G A145U C150U C169G U176G, the reverse-splicing fitness came to 0.00463.
